From publication PMC11480441, “Structure of tetrameric forms of the serotonin-gated 5-HT3A receptor ion channel” (The EMBO Journal, 2024)
Where “and” joins values, the source holds several entries; their conditions need not be identical. Equal values may be shown once.

Experiments:
[1] = target: the molecule itself; test: native gel or EMSA; blue native PAGE, 5-20% gradient gel, 4 °C; 10 ug solubilised 5-HT3AR incubated 30 min with 0 to 10 mM SDS; BSA oligomers as size markers
[2] = target: the molecule itself; test: cryo-EM structure; single-particle cryo-EM of purified 5-HT3AR in saposin lipoprotein (Salipro) with brain polar lipids, 25 mM HEPES, 125 mM NaCl, pH 7.4; apo, with serotonin (uncaged RuBi-5-HT, 200 uM), and with 100 uM 5-HT + 2 mM CaCl2; 2D and 3D classification without imposed symmetry

B1: murine wild-type serotonin 5-HT3A receptor (receptor, mouse (murine), UniProt P23979 24-489, looked up)
chain: SRRRATQARDTTQPALLRLSDHLLANYKKGVRPVRDWRKPTTVSIDVIMYAILNVDEKNQVLTTYIWYRQYWTDEFLQWTPEDFDNVTKLSIPTDSIWVPDILINEFVDVGKSPNIPYVYVHHRGEVQNYKPLQLVTACSLDIYNFPFDVQNCSLTFTSWLHTIQDINITLWRSPEEVRSDKSIFINQGEWELLEVFPQFKEFSIDISNSYAEMKFYVIIRRRPLFYAVSLLLPSIFLMVVDIVGFCLPPDSGERVSFKITLLLGYSVFLIIVSDTLPATAIGTPLIGVYFVVCMALLVISLAETIFIVRLVHKQDLQRPVPDWLRHLVLDRIAWILCLGEQPMAHRPPATFQANKTDDCSGSDLLPAMGNHCSHVGGPQDLEKTPRGRGSPLPPPREASLAVRGLLQELSSIRHFLEKRDEMREVARDWLRVGYVLDRLLFRIYLLAVLAYSITLVTLWSIWHYS
modifications: densities resembling N-linked glycosylation at N82, N148 and N164
notes: 5-HT3A receptor subunit, mouse, wild type, full length; The same subunit is found as a pentamer and as a tetramer (4 or 5 copies); The intracellular domain is not modelled in the tetramer structures; also called 5-HT3R; 5-HT3AR-Salipro; source: purified (C12E9 solubilisation, Streptactin, SEC) and reconstituted in saposins with porcine brain polar lipids; also unpurified in cell-derived plasma …
stoichiometry N [1]: 3 and 2 | stoichiometry N [2]: 4 and 5
